# Key:
# [1] = tested on: MV4-11 cells; assay: Digital spatial imaging of bone and spleen of MV4-11 CDX mice; format: in vivo, NSG mice
# Text: FIGS. 6A-6D display LAIR-1 signaling restricts AML survival signaling pathways in vivo. […] N=3 mice per group. […] N=6 mice per group. FIG. 6C is representative images of CDX mouse bones stained with DAPI and anti-human CD45 used to quantify the number of MV4-11 cells in the indicated region of interest (ROI) (highlighted). ROI area is equal between samples. […] Read counts are normalized to Histone H3 and ribosomal protein S6. N=3-11 quantified tissue regions across 2 isotype-treated or 2 LAIR-1 mAb-treated mice. Error bars represent standard error of mean. P values determined by Student's T test.
# Protocols and reagents from NanoString were used for GeoMx digital spatial imaging (DSP). Briefly, formalin-fixed paraffin-embedded (FFPE) sections of tumor and spleen were deparaffinized and rehydrated, antigen-retrieved in citrate buffer, blocked, and stained with the Human Immune Profiling Core and Cell Death Panel overnight at 37 degrees C. Anti-HCD45-Alexaflour 647 antibody (NBP2-34528AF647 from Novus Biologicals, Centennial, CO) was used as a morphology marker at 5 μg/mL to identify MV4-11 cells. After washing, slides were fixed in 4% paraformaldehyde and nuclei were stained with Syto13. Slides were scanned and regions of interest (human CD45 regions) were acquired on a GeoMx DSP instrument (Nanostring, Seattle, WA). Approximately 5 regions of interest (ROIs) were collected per tissue, and samples were multi-plexed and processed on the nCounter Prep Station and Digital Analyzer as recommended. Data were analyzed on DSP Analysis software. Following quality control, data were normalized to housekeeping genes, and statistics were performed using a linear mixed model with a Benjamin-Hochberg correction.
# [2] = tested on: SoC-resistant AML cells; assay: Ex vivo killing of VEN/AZA-treated AML patient leukemic cells; format: cell-based, human; details: 5 μg/mL of antibody; fresh BM leukemic cells from a patient treated with VEN/AZA
# Experimental: Ex vivo killing of VEN/AZA-treated AML patient leukemic cells (FIG. 7A) or T cells or NK cells (FIG. 7B). Values normalized to vehicle control. Lines represent linear regression of NC525 concentration versus normalized cell killing. […] FIGS. 7D and 7E show in vivo leukemic growth as measured by whole-body luminescence of MV4-11-luciferase cells (FIG. 7D) or survival (FIG. 7E) of CDX mice treated with 10 mg/kg isotype control (gray) or NC525 (red) or 100 mg/kg VEN (pink) or 0.5 mg/kg AZA (blue) or combination therapy (green or yellow, respectively). BLoD, below limit of detection. n=9 mice per group. P values determined by 2-way ANOVA or log-rank (Mantel-Cox) test, respectively. FIGS. 7F and 7G show leukemic growth in the blood (FIG. 7F) and in the spleen and BM (FIG. 7G) at week 8 after transplant of AML PDX mice treated with vehicle (gray), VEN/AZA (blue), NC525 (red), or VEN/AZA plus NC525 (green). n=5-10 mice per group. AML cells in spleen and BM compared from 4-5 mice per group. Data are shown as the mean±SEM. P values determined by 2-way ANOVA or 1-way ANOVA with multiple comparisons.
# [3] = tested on: MV4-11-LAIR-1 Overexpressing cells; assay: In vitro culture of MV4-11-LAIR-1 overexpressing cells with or without anti-IgG crosslinking; format: cell-based, human
# Experimental: FIGS. 4A-4O show the collagen matrix is vital to LAIR-1 induced AML cell death. (FIGS. 4A-C). Flow cytometry quantification of primary live, dead, or apoptotic total blood leukocytes after ex vivo treatment with 10 μg/mL IgG isotype control (gray) or LAIR-1 mAb (red) in the presence (FIG. 4A) or absence (FIG. 4B) of exogenous collagen, or (FIG. 4C), CD451^Lo SSC^Lo blast cells in the presence of isotype control or LAIR-1 mAb. N=3 technical replicates. […] Each dot represents an individual donor. Red shading highlights surface expression >20000 arbitrary units. Blue shading highlights expression <20000 units. Line represents simple linear regression. […] N=4-7 donors. […] Mean pixel density from Western blotting normalized to isotype control condition and graphed relative to total SHP-1. N=3 technical replicates. FIGS. 4G and 4H show mean pixel density from phospho-array of AML patient PBMCs treated ex vivo with 10 μg/mL of IgG isotype control (gray), 50 μg/mL coated collagen (white), or 10 μg/mL LAIR-1 mAb+coated collagen (red) for G, MAPK activity or (FIG. 4H), mTOR and NF-kB activity. N=2 technical replicates. […] FIGS. 4M and 4N) 4E-BP1 expression as measured by Lumit assay (FIG. 4M) or cleaved caspase-7 as measured by Western blot (FIG. 4N) of cells treated as shown in FIGS. 4I-4K. Mean pixel density normalized to histone-3 for triplicate samples. […] Values normalized to isotype for each respective condition. n=3-4 technical replicates. P values calculated by Student's t test. Error bars represent SEM.
molecule,measurement,setting,value
"LAIR-1 mAb: humanized agonist anti-LAIR-1 mAb, IgG1 backbone; h11B3 VL-2 (SEQ ID NO: 16), h11B3 VH-3 (SEQ ID NO: 27) (antibody, V domains shown, IgG1 constant regions; Synthetic: h11B3 VH-3; Synthetic: h11B3 VL-2) VH: EVQLVESGGGLVQPGGSLKLSCAASGFTFNTNAMYWVRQAPGKGLEWVGRIRSKSSNYATYYAASVKGRFTISRDDSKNTLYLQMNSLKTEDTAVYYCVRGGSGFFAYWGQGTLVTVSS VL: DIQMTQSPSSLSASLGDRVTITCKASEDIYIRLAWYQQKPGKAPRLLISTATSLETGVPSRFSGSGSGTDYTFTISSLQPEDIATYYCQQYWSTPYTFGGGTRLEIK",AML cells (human CD45+ cells) in the bones,[1]; day 22 post-engraftment,reduction
same,anti-apoptotic BCL-XL,[1]; in bones but not the spleen,decreased levels
same,anti-apoptotic uncleaved PARP,[1]; in bones but not the spleen,decreased levels
same,killing of SoC-resistant AML cells,[2],up to 70%
same,growth of LAIR-1 Overexpressing cells,"[3]; LAIR-1 mAb alone, vs isotype control",only moderately suppressed
same,proliferation of cells,"[3]; anti-IgG crosslinking conditions, after 3 days of culture",completely inhibited
same,4E-BP1 (mTORC1 target protein),[3]; crosslinking conditions,significant suppression
same,activated caspase-7,[3]; crosslinking conditions,substantial increase
